Measured values taken from paper PMC10530332.

Key:
[1] = biological target: natural nurse shark UrIg (nurse shark (Ginglymostoma cirratum) (endogenous in nurse shark tissues)); assay: non-reducing SDS-PAGE with western blot
[2] = biological target: recombinant UrIg, 4-domain molecule (V-C1-C2-C3) with C-terminal His tag (nurse shark (Ginglymostoma cirratum)); assay: SEC
[3] = biological target: recombinant UrIg, 4-domain molecule (V-C1-C2-C3) with C-terminal His tag (nurse shark (Ginglymostoma cirratum)); assay: SDS-PAGE, non-reducing against reducing

Row | stoichiometry N [1] | stoichiometry N [2] | stoichiometry N [3] | Substance
1 | 2 | – | – | natural nurse shark UrIg (natural protein)
2 | – | 2 | 2 | recombinant UrIg, 4-domain molecule (V-C1-C2-C3) with C-terminal His tag (natural protein)
